Assay results from publication PMC6643034.

Legend:
[1] = molecular target: P1126 (Amblyomma cajennense); assay: BLI; OctetRed; evasin held on a nickel-coated biosensor by its C-terminal His tag; titration with chemokine from 600 to 0.4 nM; noninteracting reference protein; fit R2 ≥0.96, at least five data points
[2] = molecular target: P1142 (Amblyomma cajennense); assay: as above
[3] = molecular target: P942 (Ixodes ricinus); assay: as above
[4] = molecular target: P675 (Ixodes ricinus); assay: as above
[5] = molecular target: CXCL8 (human)
[6] = molecular target: CXC-motif chemokine ligand 10 (CXCL10) (human) (UniProt P02778)

CXCL11, sequence (O14625 22-94): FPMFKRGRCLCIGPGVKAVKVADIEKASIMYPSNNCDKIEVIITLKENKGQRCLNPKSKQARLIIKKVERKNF

| Substance | Kd [1] | Kd [2] | target residence time [2] | Kd [3] | Kd [4] | neutralization of human CXCL8-induced granulocyte migration (Transwell, EC80 dose of CXCL8, EVA3:S5 0.05–200 nM); mean IC50 of four biological replicates [5] | neutralization of human CXCL10-induced migration of activated human CD8+ T-cells (Transwell, EC80 dose of CXCL10, EVA3:S5 0.015–1000 nM); mean IC50 of five biological replicates [6] | neutralization of human CXCL10-induced migration of activated human CD8+ T-cells (Transwell, EC80 dose of CXCL10, P1142 0.015–150 nM); mean IC50 of five biological replicates [6] |
| --- | --- | --- | --- | --- | --- | --- | --- | --- |
| CXC-motif chemokine ligand 10 (CXCL10) (from UniProt P02778 22-98) | < 0.01 µM | < 0.01 µM | > 10 min | > 0.1 µM | > 0.1 µM |  |  |  |
| CXCL11 (from UniProt O14625 22-94) (ligand) | > 0.3 µM | > 0.3 µM |  | < 0.02 µM | < 0.02 µM |  |  |  |
| EVA3:S5 (from UniProt P0C8E8 70-86) |  |  |  |  |  | 3.23e-08 M | 3.11e-08 M |  |
| P1142 (natural protein) |  |  |  |  |  |  |  | 1.85e-09 M |
